Results from patent US20020132773A1, “Methods for reducing fat by administration of adiponectin” (Oklahoma Medical Research Foundation, priority 2001, published 2002).
Entries after “also recorded” stand apart in the source; their conditions may differ.

Tests used:
BMS2 cells = assay: Adipocyte differentiation of BMS2 cells; assay type: cell-based; conditions: for fat cell formation (adipogenesis) of BMS2 cells: 5 μg/ml insulin and 0.5 mM MIBX, 10 days, proteins 10 μg/ml, PGE2 and Dup-697 1×10^-6 M, microscopy
Method: (§1) Differentiation of BMS2 cells to adipocytes was achieved by treatment with 5 μg/ml insulin and 0.5 mM MIBX for 10 days. Differentiation of MS5 cells to adipocytes was achieved by treatment with 5 μg/ml insulin alone for 15 days. Cultures were treated with adiponectin, PGE2 or Dup-697 from the time of culture initiation. At the end of this period, cultures were photographed and then stained with Nile red to detect lipid accumulation indicative of adipocyte differentiation. The extent of differentiation was estimated by flow cytometry (FACScan; Becton-Dickinson, San Jose, Calif.).

3T3-L1 cells = assay: Adipocyte generation by 3T3-L1 cell line; assay type: cell-based; conditions: insulin as only inducing agent; adiponectin 10 μg/ml, PGE2 1×10^-6 M
Excerpt: Normal human bone marrow was collected by biopsy from the posterior iliac crest of healthy young volunteers with informed consent, and used for immunohistchemical analysis of adiponectin. BMS2 and 3T3-L1 cells were maintained in D-MEM (high glucose) supplemented with 10% fetal calf serum (FCS) (HyClone, Logan, Utah). MS5 cells were maintained in α-MEM medium supplemented with 10% FCS. Balb/c mice at 3-6 weeks old: were obtained from Charles Rivers Breeding Labatories (Wilmington, Me.). B6,129S-^Ptgs2tm1Jed (COX-2^+/−) mice and C57BL/6 mice (3-5 weeks old) were purchased from the Jackson Laboratory (Bar Harbor, Me.). High mortality and unavailability precluded use of homozygous COX^−/− animals in these experiments, but a single targeted allele abrogated preadipocyte responses to adiponectin.
Bone marrow cultures represent a complex mixture of hematopoietic cells that mature through interactions with an adherent stromal layer composed of fibroblasts, adipocytes, macrophages and endothelial cells.

[1] = system: C/EBP-α and PPAR-γ in BMS2 preadipocytes; assay: Adipocyte gene expression analysis (Northern blot) in BMS2 cells; assay type: cell-based
Method: (§2) Poly(A)^+mRNA was prepared from the indicated samples using oligo(dT) columns (Ambion Inc, Austin, Tex.). Aliquots oifpoly(A)^+ mRNA (2 μg) were denatured in formamide and formaldehyde at 65 C and electrophoresed on formaldehyde-containing agarose gels. After capillary transfer to nylon membranes (MSI, Westbourough, Mass.), the RNA was crosslinked by UV exposure. cDNA probes for CCAAT/enhancer binding protein-α(C/EBP-α) and adipocyte P2 (aP2) were obtained from ResGen™ Invitrogen (Huntsville, Ala.) and American Type Culture Collection (Manassas, Va.) respectively. Probes with sizes corresponding to PPAR-γ, COX-1 and COX-2 were prepared as PCR products and all probes were radiolabeled with [α-^32P]dCTP using the random prime labeling system (Redi Prime™ II) purchased from Amersham Pharmacia Biotech.
as §1

[2] = system: bone marrow cells of normal Balb/c mice (LTBMC); assay: Long-term bone marrow cultures (LTBMC, Dexter cultures); assay type: cell-based, mouse
Method: LTBMC that support formation of myeloid cells (Dexter cultures) were initiated and maintained by published methods (Dexter, T. M. and Testa, N. G. Methods Cell Biol. 14:387-405 (1976)). Bone marrow cells of normal Balb/c mice (12×10^6) were cultured in 25-cm^2 flasks in 5% CO2 at 33 C. The medium consisted of α-MEM supplemented with 100 nM hydrocortisone and 20% horse serum (HyClone). Cultures were treated with adiponectin or bovine serum albumin (BSA) beginning at culture initiation and thereafter weekly for 6 weeks. In some experiments, adiponectin was omitted from the media after 6 weeks of culture, and maintained for another 6 weeks with medium alone.

MS5 cells = assay: Adipocyte differentiation of MS5 cells; assay type: cell-based; conditions: 5 μg/ml insulin, 15 days; adiponectin 10 μg/ml
Method: as §1

[3] = system: MS5 or BMS2 stromal cell clones; assay: RT-PCR / Northern blot of transcripts in adiponectin-treated preadipocytes; assay type: cell-based
Method: Total RNA was isolated from MS5 or BMS2 cells treated with adiponectin for various periods using TRIzol Reagent (GIBCO-BRL, Grand Island, N.Y.) and suspended in DEPC-treated water. After treating total RNA with DNase (GIBCO-BRL), cDNA was made using random hexamers and moloney murine leukemia virus reverse transcriptase (GIBCO-BRL). For PCR, 10 μl of the RT mixtures described above were added to PCR buffer containing 1.5 mM MgCl2, 1 U Taq polymerase (Perkin Elmer, Norwalk, Conn.), 2 mM each dNTP, and relevant sense and antisense primers. The DNA in the PCR reaction mixtures was amplified using 25 to 35 cycles of 94 C for 1 min, 55 C for 2 min and 72 C for 3 min. The oligonucleotide primers used for these reactions were 5′-[…]-3′ (SEQ ID NO:5) and 5′-[…]-3′ (SEQ ID NO:6) for COX-2, and 5′-[…]-3′ (SEQ ID NO:7) and 5′-[…]-3′ (SEQ ID NO:8) for COX-1. Primers for TNF-α, TGF-β, interferon (IFN)-α/β/γ, and limitin were also prepared and used in this study.
as §2

MS5 or BMS2 cells = assay: Enzyme-immunoassay for PGE2 in culture supernatants; assay type: cell-based; conditions: confluent BMS2 or MS5 cells, versus BSA
Method: Confluent MS5 or BMS2 cells prepared in 24-well plates were incubated in 500 μl of media with or without adiponectin. Supernatants from these cultures were examined for the presence of PGE2 using an enzyme-immunoassay kit purchased from Cayman Chemical.

[4] = system: normal C57BL/6 bone marrow; assay: Adherent bone marrow cell cultures, normal mice; assay type: cell-based, mouse; conditions: treated weekly for 6 weeks
Method: (§3) Adherent bone marrow cell cultures were established with heterozygous knockout COX-2^+/− mice or normal C57BL/6 mice. BM cells were suspended at 2×10^5 per 6 ml of Dexter culture media and seeded in 25-cm^2 flasks. This cell concentration gives rise to adherent stromal layers without myeloid cell growth. Cultures were treated with adiponecitin or BSA at the time of culture initiation and weekly thereafter for 6 weeks.

[5] = system: bone marrow cells of heterozygous knockout COX-2+/- mice; assay: Adherent bone marrow cell cultures, COX-2+/- mice; assay type: cell-based, mouse; conditions: cells derived from COX-2+/- animals, treated weekly for 6 weeks
Method: as §3

[6] = system: CFU-granulocyte-macrophage, CFU-macrophage, CFU-granulocyte, BFU-erythroid, mixed erythroid-myeloid CFU; conditions: cited from earlier work
myeloid cell lines = conditions: cited from earlier work
cultured macrophages = conditions: cited from earlier work
[7] = BMS2 cells, Nile red staining, flow cytometry

Molecule: CCCCC[C@H](O)/C=C/[C@H]1[C@H](O)CC(=O)[C@@H]1C/C=C\CCCC(=O)O [PGE2, prostaglandin E2, reference compound]
- fat cell formation (adipogenesis) of BMS2 cells (BMS2 cells): blocked
- lipid accumulation induced by insulin and MIBX (BMS2 cells; [7]): completely blocked
- generation of adipocytes by 3T3-L1 line (3T3-L1 cells): minimally affected
- increases of C/EBP-α and PPAR-γ expression induced by insulin and MIBX [1]: strongly inhibited

B1: adiponectin: adipocyte-specific secretory protein of 244 amino acid residues; human recombinant peptide leader deficient protein, 32 kD monomer with multimers (protein)
chain: ETTTQGPGVLLPLPKGACTGWMAGIPGHPGHNGAPGRDGRDGTPGEKGEKGDPGLIGPKGDIGETGVPGAEGPRGFPGIQGRKGEPGEGAYVYRSAFSVGLETYVTIPNMPIRFTKIFYNQQNHYDGSTGKFHCNIPGLYYFAYHITVYMKDVKVSLFKKDKAMLFTYDQYQENNVDQASGSVLLHLEVGDQVWLQVYGEGERNGLYADNDNDSTFTGFLLYHDTN
- fat cell formation in LTBMC ([2]; adiponectin 10 μg/ml in medium, from culture initiation and weekly for 6 weeks): completely inhibited
- influence on myelopoiesis in LTBMC ([2]; adiponectin 10 μg/ml, conditions that favor myeloid cell production): no influence
- reversibility of the negative influence on fat cell formation ([2]; adiponectin omitted after 6 weeks, another 6 weeks with medium alone): reversible
- fat cell formation (adipogenesis) of BMS2 cells (BMS2 cells): substantial suppression
- fat cell formation (adipogenesis) of BMS2 cells (BMS2 cells; listed as Adiponectin): blocked adipogenesis
- lipid accumulation induced by insulin and MIBX (BMS2 cells; [7]): completely blocked
- response (block of lipid accumulation) to adiponectin with COX-2 inhibitor included (BMS2 cells; BMS2 cells, Nile red staining, flow cytometry, Dup-697 1×10^-6 M): substantially blocked
- inhibition of BMS2 fat cell formation by adiponectin with Dup-697 present (BMS2 cells; insulin and MIBX, COX-2 inhibitor Dup-697 1×10^-6 M present): not observed
- suppression of adipocyte differentiation of MS5 clone (MS5 cells): substantial suppression
- generation of adipocytes by 3T3-L1 line (3T3-L1 cells): only slightly inhibited; also recorded: minimally affected
- basal expression of TGF-β, interferon-α/β/γ and limitin [3]: not obviously influenced
- transcripts corresponding to TNF-α or interferon-β ([3]; MS5 cells, adiponectin added to cultures): not detectable
- transcripts for COX-2 ([3]; MS5 or BMS2 stromal cell clones, confirmed by Northern blot): upregulated
- increase in PGE2 secretion (MS5 or BMS2 cells): approximately two-fold
- adipogenesis in adherent bone marrow cell cultures [4]: blocked adipogenesis
- effect on adipogenesis in adherent bone marrow cell cultures [5]: minimum effect; also recorded: negligible
- increases of C/EBP-α and PPAR-γ expression induced by insulin and MIBX [1]: strongly inhibited
- effect of adiponectin on C/EBP-α and PPAR-γ expression with Dup-697 ([1]; insulin and MIBX, Dup-697 1×10^-6 M): abrogated
- colony formation from CFU-granulocyte-macrophage, CFU-macrophage and CFU-granulocyte [6]: suppresses colony formation
- colony formation of burst-forming units-erythroid or mixed erythroid-myeloid CFU [6]: no effect
- number of myeloid cell lines whose proliferation is inhibited (myeloid cell lines): 4 of 9
- lipopolysaccharide-induced production of tumor necrosis factor-α by cultured macrophages (cultured macrophages): significantly inhibits
- phagocytic activity of cultured macrophages (cultured macrophages): significantly inhibits
